Assay results from article PMC12618663.

Assays:
[1] = target: TMexC1 adapter prepared alone, C-terminal 6x His tag (Klebsiella pneumoniae); experiment: SEC
[2] = target: TMexC1 adapter, Strep-tagged, from the single plasmid pBAD24::tmexCD1-toprJ1 (Klebsiella pneumoniae); experiment: cryo-EM structure
[3] = target: TMexD1 transporter, C-terminal 6x His tag (pET28::tmexD1) (Klebsiella pneumoniae); experiment: SEC
[4] = target: TMexD1 transporter, tag-free, from the single plasmid pBAD24::tmexCD1-toprJ1 (Klebsiella pneumoniae); experiment: cryo-EM structure
[5] = target: TOprJ1 outer-membrane channel prepared alone, C-terminal 6x His tag (pET28::toprJ1) (Klebsiella pneumoniae); experiment: negative-stain electron microscopy
[6] = target: TOprJ1 outer-membrane channel prepared alone, C-terminal 6x His tag (pET28::toprJ1) (Klebsiella pneumoniae); experiment: SEC
[7] = target: TOprJ1 outer-membrane channel, 6x His-tagged, from the single plasmid pBAD24::tmexCD1-toprJ1 (Klebsiella pneumoniae); experiment: cryo-EM structure

Substance: TMexC1 adapter prepared alone, C-terminal 6x His tag (natural protein)
- stoichiometry N [1]: 6

Substance: TMexC1 adapter, Strep-tagged, from the single plasmid pBAD24::tmexCD1-toprJ1 (natural protein)
- stoichiometry N [2]: 6

Substance: TMexD1 transporter, C-terminal 6x His tag (pET28::tmexD1) (natural protein)
- stoichiometry N [3]: 3

Substance: TMexD1 transporter, tag-free, from the single plasmid pBAD24::tmexCD1-toprJ1 (natural protein)
- stoichiometry N [4]: 3

Substance: TOprJ1 outer-membrane channel prepared alone, C-terminal 6x His tag (pET28::toprJ1) (natural protein)
- stoichiometry N [5]: 3
- stoichiometry N [6]: 3

Substance: TOprJ1 outer-membrane channel, 6x His-tagged, from the single plasmid pBAD24::tmexCD1-toprJ1 (natural protein)
- stoichiometry N [7]: 3
